# From patent US20230002480A1
# Columns and labels:
# Assay in all cases: cell-based or functional assay
# [1] = molecular target: HIV-1 Env of pseudovirus 3103.v3.c10 (clade ACD) (HIV-1)
# [2] = molecular target: HIV-1 Env of pseudovirus 6041.v3.c23 (clade AC) (HIV-1)
# [3] = molecular target: HIV-1 Env of pseudovirus 6480.v4.c25 (clade CD) (HIV-1)
# [4] = molecular target: HIV-1 Env of pseudovirus 0815.v3.c3 (clade ACD) (HIV-1)
# [5] = molecular target: HIV-1 Env of pseudovirus 6952.v1.c20 (clade CD) (HIV-1)
# [6] = molecular target: HIV-1 Env of pseudovirus 6540.v4.c1 (clade AC) (HIV-1)
# [7] = molecular target: HIV-1 Env of pseudovirus R2184.c04 (clade CRF01_AE) (HIV-1)
# [8] = molecular target: HIV-1 Env of pseudovirus 231965.c01 (clade D) (HIV-1)
# [9] = molecular target: HIV-1 Env of pseudovirus X2131_C1_B5 (clade G) (HIV-1)
# [10] = molecular target: HIV-1 Env of pseudovirus 89-F1_2_25 (clade CD) (HIV-1)
# [11] = molecular target: HIV-1 Env of pseudovirus 6811.v7.c18 (clade CD) (HIV-1)
# [12] = molecular target: HIV-1 Env of pseudovirus TRO.11 (HIV-1)
# [13] = molecular target: HIV-1 Env of pseudovirus 6545.v4.c1 (clade AC) (HIV-1)
# [14] = molecular target: HIV-1 Env of pseudovirus P1981_C5_3 (clade G) (HIV-1)
# [15] = molecular target: HIV-1 Env of pseudovirus X1632_S2_B10 (clade G) (HIV-1)
# [16] = molecular target: HIV-1 Env of pseudovirus 1012_11_TC21_3257 (HIV-1)
# [17] = molecular target: HIV-1 Env of pseudovirus 3016.v5.c45 (clade D) (HIV-1)
# [18] = molecular target: HIV-1 Env of pseudovirus 3817.v2.c59 (clade CD) (HIV-1)
# [19] = molecular target: HIV-1 Env of pseudovirus 3301.v1.c24 (clade AC) (HIV-1)
# [20] = molecular target: HIV-1 Env of pseudovirus A07412M1.vrc12 (clade D) (HIV-1)
# [21] = molecular target: HIV-1 Env of pseudovirus QH0692.42 (HIV-1)
# [22] = molecular target: HIV-1 Env of pseudovirus C3347.c11 (clade CRF01_AE) (HIV-1)
# [23] = molecular target: HIV-1 Env of pseudovirus 231966.c02 (clade D) (HIV-1)
substance,measurement,setting,value
PG16 (antibody),"IC50, titer in TZM.bl cells",[1],25.4 µg/mL
same,"IC80, titer in TZM.bl cells",[1],> 50 µg/mL
same,"IC50, titer in TZM.bl cells",[2],0.048 µg/mL
same,"IC80, titer in TZM.bl cells",[2],0.256 µg/mL
same,"IC50, titer in TZM.bl cells",[3],> 50 µg/mL
same,"IC80, titer in TZM.bl cells",[3],> 50 µg/mL
same,"IC50, titer in TZM.bl cells",[4],> 50 µg/mL
same,"IC80, titer in TZM.bl cells",[4],> 50 µg/mL
same,"IC50, titer in TZM.bl cells",[5],21.9 µg/mL
same,"IC80, titer in TZM.bl cells",[5],> 50 µg/mL
same,"IC50, titer in TZM.bl cells",[6],0.035 µg/mL
same,"IC80, titer in TZM.bl cells",[6],0.42 µg/mL
same,"IC50, titer in TZM.bl cells",[7],0.67 µg/mL
same,"IC80, titer in TZM.bl cells",[7],> 50 µg/mL
same,"IC50, titer in TZM.bl cells",[8],1.44 µg/mL
same,"IC80, titer in TZM.bl cells",[8],> 50 µg/mL
same,"IC50, titer in TZM.bl cells",[9],0.024 µg/mL
same,"IC80, titer in TZM.bl cells",[9],0.139 µg/mL
same,"IC50, titer in TZM.bl cells",[10],47.6 µg/mL
same,"IC80, titer in TZM.bl cells",[10],> 50 µg/mL
same,"IC50, titer in TZM.bl cells",[11],> 50 µg/mL
same,"IC80, titer in TZM.bl cells",[11],> 50 µg/mL
same,"IC50, titer in TZM.bl cells",[12],1.92 µg/mL
same,"IC80, titer in TZM.bl cells",[12],49.6 µg/mL
same,"IC50, titer in TZM.bl cells",[13],0.044 µg/mL
same,"IC80, titer in TZM.bl cells",[13],1.56 µg/mL
same,"IC50, titer in TZM.bl cells",[14],0.376 µg/mL
same,"IC80, titer in TZM.bl cells",[14],> 50 µg/mL
same,"IC50, titer in TZM.bl cells",[15],0.012 µg/mL
same,"IC80, titer in TZM.bl cells",[15],0.076 µg/mL
same,"IC50, titer in TZM.bl cells",[16],0.03 µg/mL
same,"IC80, titer in TZM.bl cells",[16],0.219 µg/mL
same,"IC50, titer in TZM.bl cells",[17],> 50 µg/mL
same,"IC80, titer in TZM.bl cells",[17],> 50 µg/mL
same,"IC50, titer in TZM.bl cells",[18],0.008 µg/mL
same,"IC80, titer in TZM.bl cells",[18],0.06 µg/mL
same,"IC50, titer in TZM.bl cells",[19],0.02 µg/mL
same,"IC80, titer in TZM.bl cells",[19],0.087 µg/mL
same,"IC50, titer in TZM.bl cells",[20],0.343 µg/mL
same,"IC80, titer in TZM.bl cells",[20],> 50 µg/mL
same,"IC50, titer in TZM.bl cells",[21],> 50 µg/mL
same,"IC80, titer in TZM.bl cells",[21],> 50 µg/mL
same,"IC50, titer in TZM.bl cells",[22],0.008 µg/mL
same,"IC80, titer in TZM.bl cells",[22],0.045 µg/mL
same,"IC50, titer in TZM.bl cells",[23],0.007 µg/mL
same,"IC80, titer in TZM.bl cells",[23],0.031 µg/mL
10E8 (antibody),"IC50, titer in TZM.bl cells",[1],> 10 µg/mL
same,"IC80, titer in TZM.bl cells",[1],> 10 µg/mL
same,"IC50, titer in TZM.bl cells",[2],2.33 µg/mL
same,"IC80, titer in TZM.bl cells",[2],9.77 µg/mL
same,"IC50, titer in TZM.bl cells",[3],8.08 µg/mL
same,"IC80, titer in TZM.bl cells",[3],> 10 µg/mL
same,"IC50, titer in TZM.bl cells",[4],0.332 µg/mL
same,"IC80, titer in TZM.bl cells",[4],2.87 µg/mL
same,"IC50, titer in TZM.bl cells",[5],0.343 µg/mL
same,"IC80, titer in TZM.bl cells",[5],1.91 µg/mL
same,"IC50, titer in TZM.bl cells",[6],1.9 µg/mL
same,"IC80, titer in TZM.bl cells",[6],10 µg/mL
same,"IC50, titer in TZM.bl cells",[7],0.272 µg/mL
same,"IC80, titer in TZM.bl cells",[7],2.46 µg/mL
same,"IC50, titer in TZM.bl cells",[8],> 10 µg/mL
same,"IC80, titer in TZM.bl cells",[8],> 10 µg/mL
same,"IC50, titer in TZM.bl cells",[9],0.189 µg/mL
same,"IC80, titer in TZM.bl cells",[9],0.974 µg/mL
same,"IC50, titer in TZM.bl cells",[10],1.11 µg/mL
same,"IC80, titer in TZM.bl cells",[10],10 µg/mL
same,"IC50, titer in TZM.bl cells",[11],7.54 µg/mL
same,"IC80, titer in TZM.bl cells",[11],> 10 µg/mL
same,"IC50, titer in TZM.bl cells",[12],0.034 µg/mL
same,"IC80, titer in TZM.bl cells",[12],0.25 µg/mL
same,"IC50, titer in TZM.bl cells",[13],1.78 µg/mL
same,"IC80, titer in TZM.bl cells",[13],8.23 µg/mL
same,"IC50, titer in TZM.bl cells",[14],0.057 µg/mL
same,"IC80, titer in TZM.bl cells",[14],0.285 µg/mL
same,"IC50, titer in TZM.bl cells",[15],1.98 µg/mL
same,"IC80, titer in TZM.bl cells",[15],9.68 µg/mL
same,"IC50, titer in TZM.bl cells",[16],0.244 µg/mL
same,"IC80, titer in TZM.bl cells",[16],4.21 µg/mL
same,"IC50, titer in TZM.bl cells",[17],0.476 µg/mL
same,"IC80, titer in TZM.bl cells",[17],4.39 µg/mL
same,"IC50, titer in TZM.bl cells",[18],1.18 µg/mL
same,"IC80, titer in TZM.bl cells",[18],5.98 µg/mL
same,"IC50, titer in TZM.bl cells",[19],4.63 µg/mL
same,"IC80, titer in TZM.bl cells",[19],> 10 µg/mL
same,"IC50, titer in TZM.bl cells",[20],0.576 µg/mL
same,"IC80, titer in TZM.bl cells",[20],6.05 µg/mL
same,"IC50, titer in TZM.bl cells",[21],0.442 µg/mL
same,"IC80, titer in TZM.bl cells",[21],4.05 µg/mL
same,"IC50, titer in TZM.bl cells",[22],0.016 µg/mL
same,"IC80, titer in TZM.bl cells",[22],0.167 µg/mL
same,"IC50, titer in TZM.bl cells",[23],0.191 µg/mL
same,"IC80, titer in TZM.bl cells",[23],3.13 µg/mL
